The values that follow come from article PMC4442525 (2015).

B1: FLAG-tagged KIR3DL1*001 [human] / HLA-B*57:01-LF9 tetramer [human | not stated] (parent complex)
chain 1: HMGGQDKPFLSAWPSAVVPRGGHVTLRCHYRHRFNNFMLYKEDRIHIPIFHGRIFQESFNMSPVTTAHAGNYTCRGSHPHSPTGWSAPSNPVVIMVTGNHRKPSLLAHPGPLVKSGERVILQCWSDIMFEHFFLHKEGISKDPSRLVGQIHDGVSKANFSIGPMMLALAGTYRCYGSVTHTPYQLSAPSDPLDIVVTGPYEKPSLSAQPGPKVQAGESVTLSCSSRSSYDMYHLSREGGAHERRLPAVRKVNRTFQADFPLGPATHGGTYRCFGSFRHSPYEWSDPSDPLLVSVTGNPSSSWPSPTEPSSKSGNPRHLHILIGTSVVIILFILLLFFLLHLWCSNKKNAAVMDQEPAGNRTANSEDSDEQDPEEVTYAQLDHCVFTQRKITRPSQRPKTPPTDTILYTELPNAKPRSKVVSCP
chain 2: not shown
chain 3: not shown
chain 4: LSSPVTKSF

The first assay covers variants of B1. The assay is described as follows: pHLA tetramer staining of transfected HEK293T cells; read off a plot.
Turning to chain 4 S8H, the response is about 99.

Consider chain 4 S8A, for which the response was about 57. With chain 4 S8R, the response is about 72. Consider chain 4 S8L, for which the response was about 58. On to chain 4 S8F, for which the response was about 110.

A further assay covers variants of B1. The assay is described as above. The source holds these as a separate data set.
Consider chain 4 S8E, for which the response is about 6.

A further assay covers variants of B1. Described as above. The source holds these as a separate data set.
With chain 1 G138W, the response is about 83. Still for that read-out and setting: under chain 1 P163S stands about 81; under chain 1 L166R, about 8. Still for that read-out and setting: in the case of chain 1 P199L it was about 71.
